From patent publication US20250250357A1 (NANJING ZAIMING PHARMACEUTICAL, published 2025)

Experiments:
[1] = target: T1, human MSLN-R3-his protein (human, UniProt Q13421 487-598); assay: ELISA on coated antigen, no antibody (blank, column 'none')
T1 construct: it is put last here; also called human MSLN-R3 protein; hMSLN-R3-his; not shown: His tag

[2] = target: T1, human MSLN-R3-his protein; assay: ELISA on coated antigen, antibody 0.0002 nM
Experimental: (§1) The plate was sealed with a plastic film and incubated at 4° C. overnight. The next day, the plate was washed twice with PBST, and a blocking buffer [PBS+2% (w/w) BSA] was added for blocking at room temperature for 2 h. The blocking buffer was discarded, and a chimeric antibody or negative control antibody serially diluted from 100 nM was added at 50 μL/well. After incubation at 37° C. for 2 h, the plate was washed 3 times with PBST. […] After incubation at 37° C. for 2 h, the plate was washed 5 times with PBST. A TMB substrate was added at 50 μL/well for incubation at room temperature for 5-10 min, and then a stop solution (1.0 N HCl) was added at 50 μL/well.

[3] = target: T2, human MSLN-R2-his protein (human, UniProt Q13421 391-486); assay: ELISA on coated antigen, antibody 0.002 nM
T2 construct: it is put last here; also called human MSLN-R2 protein; hMSLN-R2-his; not shown: His tag
T2 sequence (Q13421 other isoform, or with tags, fused parts or gaps): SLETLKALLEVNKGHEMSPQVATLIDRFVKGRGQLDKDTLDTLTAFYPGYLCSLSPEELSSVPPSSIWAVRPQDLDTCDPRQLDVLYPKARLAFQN

[4] = target: T2, human MSLN-R2-his protein; assay: ELISA on coated antigen, antibody 0.02 nM
Experimental: as §1

[5] = target: T2, human MSLN-R2-his protein; assay: ELISA on coated antigen, antibody 2 nM
Experimental: as §1

[6] = target: T2, human MSLN-R2-his protein; assay: ELISA on coated antigen, no antibody (blank, column 'none')
Experimental: as §1

[7] = target: T1, human MSLN-R3-his protein; assay: ELISA on coated antigen, antibody 0.2 nM
Experimental: as §1

[8] = target: T1, human MSLN-R3-his protein; assay: ELISA on coated antigen, antibody 2 nM
Experimental: as §1

[9] = target: T1, human MSLN-R3-his protein; assay: ELISA on coated antigen, antibody 0.002 nM
[10] = target: T1, human MSLN-R3-his protein; assay: ELISA on coated antigen, antibody 0.02 nM
[11] = target: T1, human MSLN-R3-his protein; assay: ELISA on coated antigen, antibody 200 nM
Experimental: as §1

[12] = target: T2, human MSLN-R2-his protein; assay: ELISA on coated antigen, antibody 200 nM
Experimental: as §1

[13] = target: T1, human MSLN-R3-his protein; assay: ELISA on coated antigen, antibody 20 nM
Experimental: as §1

[14] = target: T2, human MSLN-R2-his protein; assay: ELISA on coated antigen, antibody 20 nM
Experimental: as §1

[15] = target: T2, human MSLN-R2-his protein; assay: ELISA on coated antigen, antibody 0.0002 nM
Experimental: as §1

[16] = target: T2, human MSLN-R2-his protein; assay: ELISA on coated antigen, antibody 0.2 nM
Experimental: as §1

T1 sequence (Q13421 495-606): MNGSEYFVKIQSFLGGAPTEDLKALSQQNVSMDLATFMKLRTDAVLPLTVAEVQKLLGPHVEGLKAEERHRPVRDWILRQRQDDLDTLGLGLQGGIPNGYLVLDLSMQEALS

| Binder | OD450 [1] [OD] | OD450 [2] [OD] | OD450 [3] [OD] | OD450 [4] [OD] | OD450 [5] [OD] | OD450 [6] [OD] | OD450 [7] [OD] | OD450 [8] [OD] | OD450 [9] [OD] | OD450 [10] [OD] | OD450 [11] [OD] | OD450 [12] [OD] | OD450 [13] [OD] | OD450 [14] [OD] | OD450 [15] [OD] | OD450 [16] [OD] |
| --- | --- | --- | --- | --- | --- | --- | --- | --- | --- | --- | --- | --- | --- | --- | --- | --- |
| S009-F7.12.13 (antibody, human IgG1, kappa, V domains shown, Human-murine chimeric antibody, human IgG1 heavy and kappa light constant regions) VH: EVQLQQSGPELVKPGASVKIPCKASGYTFTDYNMDWVKQSHGKGLEWIGDINPNTDDTIYNQKFNGKATLTVDKSSSTAYMELRSLTSEDTAVYYCSRRLIGTGYFDVWGTGTTVTVSS VL: QIVLTQSPAIMSASPGEKVTLTCSASSSVISTYLCWYRQKPGSSPELWIYSTSNLASGVPARFSGSGSGTSYSLTISSMEAEDAASYFCHQWSNYPYTFGGGTKLGMKR | 0.06 | 0.06 | 0.05 | 0.05 | 0.05 | 0.06 | 1.67 | 2.48 | 0.15 | 0.36 | 2.96 | 0.08 | 2.67 | 0.06 | 0.05 | 0.05 |
| S009-F7.18.10 (antibody, human IgG1, kappa, V domains shown, Human-murine chimeric antibody, human IgG1 heavy and kappa light constant regions) VH: QVQLQQSGAELVRPGTSVKVSCKASGYAFTNYLIEWVKQRPGQGLEWIGVINPGSGGTKYNEKFKGKATLTADKSSSTAYMQLSSLTSEDSAVYFCASDYDYDPFAYWGQGTLVTVSA VL: DIVMTQSHKFMSTSVGDRVSITCKASQDVSTAVAWYQRKPGQSPKLLIYWASTRHTGVPDRFTGSGSGTDYTLTISYMQAEDLALYYCQQHYSTPYTFGGGTKLEIKR | 0.07 | 0.05 | 0.05 | 0.05 | 0.09 | 0.06 | 0.06 | 0.07 | 0.05 | 0.05 | 0.29 | 0.14 | 0.14 | 0.09 | 0.05 | 0.06 |
| S009-F7.23.19 (antibody, human IgG1, kappa, V domains shown, Human-murine chimeric antibody, human IgG1 heavy and kappa light constant regions) VH: EVKLVESGGGLVQPGGSLSLSCAASGFTFTDYYMSWVRQPPGKALEWLGFIRSKANAYTTEYSASVKGRFTISRDNSQSILYLQMNDLRAEDSATYYCARYYYYGSGYVWYFDVWGTGTTVTVSS VL: DIVMTQSQKFMSTSVGDRVSVTCKASQSVGTNVAWYQQKPGQFPKALIYSASYRYSGVPDRFTGSGSGTDFTLTIINVQSEDLAEYFCQQYNSYPLTFGAGTKLELKR | 0.09 | 0.08 | 0.05 | 0.05 | 0.05 | 0.06 | 1.9 | 2.52 | 0.25 | 0.88 | 2.77 | 0.09 | 2.63 | 0.05 | 0.14 | 0.05 |
| S009-F7.25.19 (antibody, human IgG1, kappa, V domains shown, Human-murine chimeric antibody, human IgG1 heavy and kappa light constant regions) VH: QVQLQQPGTELVKPGASVKLSCKASGYTFTSYWMHWVKQRPGQGLEWIGNIIPSNGGTKYNEKFKSKATLTVDKSSSTAYMQLSSLTSEDSAVYYCSPHYYGGSPGFAYWGQGTLITVSA VL: DIVMTQSQKFMSTSVGDRVSVICKASQNVGTNVAWYQQKPGQSPKALIYSASYRYSGVPDRFTGSGSGTDFTLTISNVQSEDLAEYFCQQYNSYPLTFGGGTKLEIKR | 0.07 | 0.3 | 0.05 | 0.05 | 0.06 | 0.06 | 2.6 | 2.76 | 0.9 | 1.81 | 2.83 | 0.31 | 2.71 | 0.09 | 0.05 | 0.05 |
| S009-F7.26.15 (antibody, human IgG1, kappa, V domains shown, Human-murine chimeric antibody, human IgG1 heavy and kappa light constant regions) VH: DVQLQESGPGLVKPSQTVFLTCTVTGISITTGNYRWSWIRQFPGNKLEWIGYIYYTGFITYNPSLTSRTTITRDTPKNQFFLEMKSLTAEDTATYYCARDDYDYDVFAYWGQGTLVTVSA VL: DIQMTQSPASLSASVGETVTITCRASGNIHNYLAWYHQKQGKSPQFLVYKAKTLADGVPSRFSGSGSGTQYSLKINRLQPEDFGSYYCQHFLSIPLTFGAGTKLELKR | 0.07 | 0.16 | 0.05 | 0.05 | 0.05 | 0.06 | 2.45 | 2.79 | 0.6 | 1.63 | 2.74 | 0.18 | 2.73 | 0.08 | 0.05 | 0.05 |
| S009-F7.30.5 (antibody, human IgG1, kappa, V domains shown, Human-murine chimeric antibody, human IgG1 heavy and kappa light constant regions) VH: QVQLQQPKTELVKPGASVKLSCKASGYIFTTYWMHWVKQRPGQGLEWIGNVNPSNGGTMYNEKFERRATLTVDKSSSTADMQLSSLTSEDSAVYYCVPHYIGSRPGFAYWGQGTLVTVSG VL: DIVMTQSQKFMSTSVGDRVSVTCKASQNVGTNVAWYQHKPGQSPKALLYSASYRYSGVPDRFTGSGSGTDFTLTITNVQSEDLAEYFCQQYNSYPLTFGGGTKLEIKR | 0.09 | 0.25 | 0.05 | 0.05 | 0.06 | 0.06 | 2.66 | 2.75 | 0.74 | 1.7 | 2.71 | 0.5 | 2.84 | 0.15 | 0.05 | 0.06 |
| S009-F7.33.24 (antibody, human IgG1, kappa, V domains shown, Human-murine chimeric antibody, human IgG1 heavy and kappa light constant regions) VH: QVQLQQPGTELVKPGASVKLSCKASGYTFTSYWMHWVKQRPGQGLEWIGNVNPSNGGSNYNEKFKNKATLTVDKSSSTADMQLNSLTSEDSAVYYCAPHYIGSRPGFAYWGQGTLVTVSG VL: DIVMTQSQKFMSTSVGDRVSVTCKASQNVGTNIAWYQQKPGQSPKALIYSASYRYSGVPDRFTGSGSGTDFTLTITNVQSEDLAEYFCQQYNSYPLTFGGGTKVEIKR | 0.08 | 0.23 | 0.06 | 0.06 | 0.06 | 0.07 | 2.7 | 2.85 | 1.04 | 2.13 | 2.84 | 0.08 | 2.67 | 0.04 | 0.06 | 0.06 |
| S009-F7.41.18 (antibody, human IgG1, kappa, V domains shown, Human-murine chimeric antibody, human IgG1 heavy and kappa light constant regions) VH: QVQLQQPGTELVKPGASVKLSCKASDYTFTSYWMHWVKQRPGQGLEWIGSINPSNGDTYYNEKFKNKATLTVDKSSSTAYMQLSSLTSDDSAVYYCARGWYFDVWGTGTTVTVSS VL: not shown | 0.06 | 0.07 | 0.07 | 0.07 | 0.11 | 0.08 | 1.92 | 2.43 | 0.12 | 0.69 | 3 | 0.15 | 2.46 | 0.12 | 0.07 | 0.07 |
| S009-F7.44.20 (antibody, human IgG1, kappa, V domains shown, Human-murine chimeric antibody, human IgG1 heavy and kappa light constant regions) VH: EVQLQQSGPELVKPGASVKIPCKASGYTFTDYNMDWVKQSHGKSLEWIGDINPSTGGTIYNQKFNGKATLTEDKSASTVYMEFRSLTSDDTAVYYCARRRIGTGYFDVWGTGTTVTVSS VL: QIVLTQSPALMSASPGEKVTLTCSASSSVISSYLSWYQQKPGSSPKLLIYRTSNLASGVPARFSGSGSGTSYSLTISSMEAEDAASYFCHQWSSFPYTFGGGTKLEIKR | 0.06 | 0.1 | 0.05 | 0.05 | 0.05 | 0.06 | 2.2 | 2.46 | 0.27 | 0.9 | 2.91 | 0.1 | 2.48 | 0.06 | 0.05 | 0.05 |
| S009-F7.48.1 (antibody, human IgG1, kappa, V domains shown, Human-murine chimeric antibody, human IgG1 heavy and kappa light constant regions) VH: QVQLQQPGTELVKPGASVKLSCKASGYTFTSYWMHWVKQRPGQGLEWIGNINPSNGGTNNNENFKSKATLTVDTSSSTAYMQLSSLTSEDSAVYYCVRNGYHGYWYFDVWGTGTTVTVSS VL: DIVMTQSQKFMSTSVGDRVSVTCKASQNVGTNVAWYQQQPGQSPKALIYSASYRYSGVPDRFTGSVSGTDFTLTISNVQSEDLAEYFCQQYNSYPLTFGGGTKLEIKR | 0.06 | 0.05 | 0.05 | 0.05 | 0.05 | 0.06 | 0.94 | 2.05 | 0.08 | 0.26 | 2.69 | 0.09 | 2.43 | 0.07 | 0.05 | 0.05 |
